Starred links: 1 amine or outer side, 2 acyl side, 3 side chain; linkers in the order of their positions; H or OH if unused. Positions of bridges follow the written chain, without caps; N, C: chain ends. Non-standard residues stand in square brackets, D forms with d. Primed or numbered codes have the meaning given here. *: point of attachment. PyrS2″ = (S)-3-amino-1-((pent-4-en-1-yloxy)carbonyl)pyrrolidine-3-carboxylic acid (stapling residue), C=CCCCOC(=O)N1CC[C@@](N[*:1])(C(=O)[*:2])C1; B5(4) = 2,2-bis(4-pentenyl)glycine = 2-amino-2-(pent-4-en-1-yl)hept-6-enoic acid (stitching residue), C=CCCCC(CCCC=C)(N[*:1])C(=O)[*:2]; B5(5) = 2,2-bis(4-pentenyl)glycine, 2-amino-2-(pent-4-en-1-yl)hept-6-enoic acid (stitching residue), C=CCCCC(CCCC=C)(N[*:1])C(=O)[*:2]; B5(3) = 2,2-bis(4-pentenyl)glycine (stitching residue), C=CCCCC(CCCC=C)(N[*:1])C(=O)[*:2]; Phe(3-COOH) = N[C@@H](Cc1cccc(C(=O)O)c1)C(=O)O; Phe(2-Cl) = N[C@@H](Cc1ccccc1Cl)C(=O)O; Bta = N[C@@H](Cc1csc2ccccc12)C(=O)O; αAllylPro = C=CC[C@@]1(C(=O)O)CCCN1; tBuAla = CC(C)(C)C[C@H](N)C(=O)O; 3Thi = N[C@@H](Cc1ccsc1)C(=O)O; PyrS2(4) = not defined here; Leu(ol) = CC(C)C[C@H](N)CO; Alaol = C[C@@H](CO)N*; Aib = CC(C)(N)C(=O)O
T1: B-cat-Halo (beta-catenin HaloTag NanoBRET construct expressed in HEK293 cells) (UniProt P35222 2-781)
T1 sequence (looked up): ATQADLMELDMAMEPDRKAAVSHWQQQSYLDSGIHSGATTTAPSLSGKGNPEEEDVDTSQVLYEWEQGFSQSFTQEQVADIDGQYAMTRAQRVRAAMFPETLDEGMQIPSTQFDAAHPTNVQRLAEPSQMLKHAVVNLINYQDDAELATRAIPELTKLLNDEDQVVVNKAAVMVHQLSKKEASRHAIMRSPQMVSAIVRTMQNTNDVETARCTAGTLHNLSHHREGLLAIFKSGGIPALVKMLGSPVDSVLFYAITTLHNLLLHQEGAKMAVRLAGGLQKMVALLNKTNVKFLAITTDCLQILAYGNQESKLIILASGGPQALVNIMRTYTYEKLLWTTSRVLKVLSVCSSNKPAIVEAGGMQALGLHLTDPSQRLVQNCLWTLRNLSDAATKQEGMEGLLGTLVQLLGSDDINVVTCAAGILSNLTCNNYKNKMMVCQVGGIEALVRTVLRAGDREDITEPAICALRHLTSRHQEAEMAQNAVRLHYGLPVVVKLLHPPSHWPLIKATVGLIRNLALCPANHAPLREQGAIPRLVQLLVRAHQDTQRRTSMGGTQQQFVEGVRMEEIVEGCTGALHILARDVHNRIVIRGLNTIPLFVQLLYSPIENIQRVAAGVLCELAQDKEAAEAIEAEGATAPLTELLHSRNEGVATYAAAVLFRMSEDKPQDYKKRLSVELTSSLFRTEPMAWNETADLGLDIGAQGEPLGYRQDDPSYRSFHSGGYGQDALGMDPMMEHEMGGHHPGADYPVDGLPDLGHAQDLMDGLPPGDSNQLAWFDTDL

T2: beta-catenin in DLD1 TCF/LEF luciferase reporter cells (UniProt P35222 2-781)
T2 sequence (looked up): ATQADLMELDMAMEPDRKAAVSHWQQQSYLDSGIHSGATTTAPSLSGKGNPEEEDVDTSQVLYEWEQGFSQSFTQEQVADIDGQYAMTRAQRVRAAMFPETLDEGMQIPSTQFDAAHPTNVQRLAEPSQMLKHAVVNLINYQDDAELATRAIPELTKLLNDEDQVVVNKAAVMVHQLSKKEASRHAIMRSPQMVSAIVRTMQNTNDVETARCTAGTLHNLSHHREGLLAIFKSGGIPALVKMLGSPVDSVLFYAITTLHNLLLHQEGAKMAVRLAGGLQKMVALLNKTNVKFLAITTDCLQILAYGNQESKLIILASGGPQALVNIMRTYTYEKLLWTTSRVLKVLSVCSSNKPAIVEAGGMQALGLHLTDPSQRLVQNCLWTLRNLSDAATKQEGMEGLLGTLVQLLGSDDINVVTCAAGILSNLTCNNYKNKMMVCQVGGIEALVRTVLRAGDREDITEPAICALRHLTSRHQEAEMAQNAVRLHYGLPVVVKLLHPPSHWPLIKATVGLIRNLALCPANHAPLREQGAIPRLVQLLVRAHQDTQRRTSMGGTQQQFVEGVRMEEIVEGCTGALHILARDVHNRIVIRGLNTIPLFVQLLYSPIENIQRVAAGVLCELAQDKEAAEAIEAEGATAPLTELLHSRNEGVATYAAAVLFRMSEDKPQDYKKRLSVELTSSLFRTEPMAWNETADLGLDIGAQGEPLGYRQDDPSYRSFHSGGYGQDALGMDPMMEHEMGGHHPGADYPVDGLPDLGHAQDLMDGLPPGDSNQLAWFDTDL

T3: B-cat-Halo (beta-catenin HaloTag construct transfected into HEK293 cells) (UniProt P35222 1-781)
T3 sequence (looked up): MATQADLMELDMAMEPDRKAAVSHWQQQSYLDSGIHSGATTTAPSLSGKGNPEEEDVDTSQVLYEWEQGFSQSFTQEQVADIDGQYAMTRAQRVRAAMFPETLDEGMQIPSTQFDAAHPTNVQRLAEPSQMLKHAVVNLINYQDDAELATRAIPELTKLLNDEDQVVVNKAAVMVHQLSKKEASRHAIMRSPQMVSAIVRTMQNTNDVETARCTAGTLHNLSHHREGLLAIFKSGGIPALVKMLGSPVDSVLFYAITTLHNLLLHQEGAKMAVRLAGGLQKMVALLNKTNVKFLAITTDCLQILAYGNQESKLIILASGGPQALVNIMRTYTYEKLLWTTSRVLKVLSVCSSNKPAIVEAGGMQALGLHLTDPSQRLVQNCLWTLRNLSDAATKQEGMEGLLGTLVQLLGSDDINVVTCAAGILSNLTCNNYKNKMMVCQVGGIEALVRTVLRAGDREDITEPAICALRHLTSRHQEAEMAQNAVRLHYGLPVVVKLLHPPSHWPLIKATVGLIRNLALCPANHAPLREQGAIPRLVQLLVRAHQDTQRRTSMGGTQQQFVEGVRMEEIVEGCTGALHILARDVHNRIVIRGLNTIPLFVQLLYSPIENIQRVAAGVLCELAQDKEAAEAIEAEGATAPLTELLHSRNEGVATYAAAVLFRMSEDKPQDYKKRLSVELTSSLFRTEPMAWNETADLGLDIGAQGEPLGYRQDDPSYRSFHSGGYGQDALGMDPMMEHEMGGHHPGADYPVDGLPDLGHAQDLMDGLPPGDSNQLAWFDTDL

T4: beta-catenin in DLD1 TCF/LEF luciferase reporter cells (UniProt P35222 1-781)
T4 sequence (looked up): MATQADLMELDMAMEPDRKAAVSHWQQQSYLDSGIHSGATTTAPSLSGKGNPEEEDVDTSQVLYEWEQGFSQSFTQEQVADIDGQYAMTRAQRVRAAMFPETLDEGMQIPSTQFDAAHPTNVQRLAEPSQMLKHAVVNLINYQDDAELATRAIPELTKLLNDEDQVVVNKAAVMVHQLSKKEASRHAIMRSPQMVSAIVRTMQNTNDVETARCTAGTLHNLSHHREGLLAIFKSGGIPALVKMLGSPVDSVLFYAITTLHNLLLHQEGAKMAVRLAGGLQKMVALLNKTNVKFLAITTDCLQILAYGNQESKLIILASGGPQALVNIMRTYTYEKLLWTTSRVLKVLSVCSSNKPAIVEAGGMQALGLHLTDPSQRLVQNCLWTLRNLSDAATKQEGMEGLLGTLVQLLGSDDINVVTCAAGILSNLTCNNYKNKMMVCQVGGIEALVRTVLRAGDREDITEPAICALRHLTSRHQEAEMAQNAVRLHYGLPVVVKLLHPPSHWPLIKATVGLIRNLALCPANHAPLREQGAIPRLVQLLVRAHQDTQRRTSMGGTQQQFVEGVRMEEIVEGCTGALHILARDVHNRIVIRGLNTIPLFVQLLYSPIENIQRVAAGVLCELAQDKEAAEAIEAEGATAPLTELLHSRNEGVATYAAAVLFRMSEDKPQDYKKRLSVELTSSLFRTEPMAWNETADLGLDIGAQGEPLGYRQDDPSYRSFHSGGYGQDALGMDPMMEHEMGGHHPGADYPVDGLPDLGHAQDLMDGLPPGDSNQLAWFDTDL

T5: B-cat-Halo (UniProt P35222 1-781)
T5 sequence (looked up): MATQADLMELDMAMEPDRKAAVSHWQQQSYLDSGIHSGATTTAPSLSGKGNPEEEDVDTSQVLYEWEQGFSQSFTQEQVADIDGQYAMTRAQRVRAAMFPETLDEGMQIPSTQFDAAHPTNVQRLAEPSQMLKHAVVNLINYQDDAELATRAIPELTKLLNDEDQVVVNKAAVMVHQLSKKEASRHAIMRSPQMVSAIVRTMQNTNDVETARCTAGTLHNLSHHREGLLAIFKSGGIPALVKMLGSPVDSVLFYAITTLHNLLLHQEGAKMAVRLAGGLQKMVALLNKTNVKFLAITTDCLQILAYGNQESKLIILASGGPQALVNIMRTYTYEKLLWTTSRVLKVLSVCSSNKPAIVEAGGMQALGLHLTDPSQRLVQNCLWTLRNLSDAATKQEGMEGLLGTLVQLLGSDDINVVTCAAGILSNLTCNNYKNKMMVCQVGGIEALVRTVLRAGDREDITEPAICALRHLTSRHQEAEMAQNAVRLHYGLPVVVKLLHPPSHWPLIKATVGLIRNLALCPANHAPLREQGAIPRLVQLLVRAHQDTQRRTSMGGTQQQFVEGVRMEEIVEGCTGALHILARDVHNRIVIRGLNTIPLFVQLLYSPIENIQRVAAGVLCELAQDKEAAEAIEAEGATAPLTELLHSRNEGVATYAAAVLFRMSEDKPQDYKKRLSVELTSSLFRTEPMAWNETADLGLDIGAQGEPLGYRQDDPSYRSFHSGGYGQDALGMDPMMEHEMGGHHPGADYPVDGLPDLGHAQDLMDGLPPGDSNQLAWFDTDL


Key:
Test in all cases: cell-based or functional assay
[1] = target: T1, B-cat-Halo (beta-catenin HaloTag …)
[2] = target: T2, beta-catenin in DLD1 TCF/LEF luciferase …
[3] = target: T3, B-cat-Halo (beta-catenin HaloTag …)
[4] = target: T4, beta-catenin in DLD1 TCF/LEF luciferase …
[5] = target: T5, B-cat-Halo

Binder	NanoBRET Abs IC50 [1] [µM]	DLD1 4% Abs IC50 [2] [µM]	NanoBRET Abs IC50 [3] [µM]	DLD1 4% Abs IC50 [4] [µM]	NanoBRET IC50 [5] [µM]
Ac-[αAllylPro]D[tBuAla][B5(4)]DDAAFN[PyrS2″][Phe(2-Cl)][Bta][Leu(ol)] (staple 1-4, 4-11) [I-1080]	> 20	10.4	–	–	–
Ac-[αAllylPro]D[tBuAla][B5(4)]D[Phe(3-COOH)]QAFL[PyrS2(4)][3Thi][Bta]A-NH2 (staple 1-4, 4-11; not fully specified; printed as Ac-PL3-Asp-Npg-B5-Asp-3COOHF-Gln-Ala-Phe-Leu-PyrS2-3Thi-BztA-Ala-NH2; reading uncertain) [I-1918]	–	–	4	6.5	–
Ac-[αAllylPro]D[tBuAla][B5(3)]DDAAFN[PyrS2″][Phe(2-Cl)][Bta]-Alaol (staple 1-4, 4-11) [I-1081]	16.7	10.6	–	–	–
Ac-[αAllylPro]D[tBuAla][B5(4)]D[Phe(3-COOH)][Aib]AFL[PyrS2(4)][3Thi][Bta]A-NH2 (staple 1-4, 4-11; not fully specified; printed as Ac-PL3-Asp-Npg-B5-Asp-3COOHF-Aib-Ala-Phe-Leu-PyrS2-3Thi-BztA-Ala-NH2; reading uncertain) [I-1920]	–	–	3.1	1.2	–
Ac-[αAllylPro]D[tBuAla][B5(5)]DDAAFN[PyrS2″][3Thi][Bta]Q-NH2 (staple 1-4, 4-11) [I-686]	–	–	–	–	7.5
